Where a chain is given by its changes, count along the chain named. Values belong to the binder of their own block, whether it stands above or below them.
Experiments:
cynomolgus CD38 ECD [1] = target: T1, cynomolgus CD38 ECD (cynomolgus, UniProt Q5VAN0 44-301, biotinylated on the AviTag during preparation); experiment: ELISA: plate coated with 1 ug/ml recombinant cynomolgus CD38 ECD, serially diluted antibody, OD450
T1 construct: also called Cyno-CD38; Avi-Cyno CD38 ECD
Description: (§1) The plate was coated overnight at 4° C. with 1 μg/ml recombinant CD38 or ICAM1. After washing 3 times, the plate was blocked with 300 μl 1% BSA in PBST at 37° C. for 1 hour. Serially diluted antibodies were added and incubated at 37° C. for 1 hour. The plate was then washed 4 times with PBST and incubated with 1:5000 diluted 2nd antibody (Sigma, Cat #A0293) at 37° C. for 1 hour.

cynomolgus CD38 ECD [2] = target: T1, cynomolgus CD38 ECD; experiment: SPR (Biacore 8K), antibody captured, antigen injected;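 also: antibodies held on a CM5 chip through anti-human IgG Fc, antigen in 3-fold serial dilutions, 1 min association then 10 min dissociation at 25 °C, 1:1 Langmuir global fit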
Description: (§2) The binding kinetics of the anti-CD38 and anti-ICAM1 antibodies were evaluated on a Biacore 8K instrument (GE Healthcare). Biacore Series S CM5 sensor chips were immobilized with monoclonal mouse anti-human IgG (Fc) antibody (human antibody capture kit from GE Healthcare). Antibodies were captured on each flow cell. Serial 3-fold dilutions of each antigen were injected at a flow rate of 30 μl/min. Each sample was analyzed with 1 min association and 10 min dissociation at room temperature (25° C.). After each injection, the chip was regenerated using 3M MgCl₂. A 1:1 Langmuir model of simultaneous fitting of kₒₙ and koff was used for kinetics analysis.

recombinant human CD38 [3] = target: T2, recombinant human CD38 (human, UniProt P28907 43-300, limits assumed); experiment: as above
Description: as §2

[4] = target: T3, CD38 on the surface of Daudi cells (human, UniProt P28907 1-300); experiment: flow cytometry, Daudi cells;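 also: purified antibodies incubated with Daudi cells for 1 h at 4 °C, bound antibody detected by fluorescent secondary antibody and read by flow cytometry as MFI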
T3 construct: whole, on cells
Description: Harvested cells were centrifuged at 2000 rpm for 5 min and resuspended with 10-15 ml ice-cold culture medium. Cells were counted and then 3×10⁶ cells were resuspended per mL of blocking buffer (PBS plus 2% FBS). 100 μl of the cell suspension was dispensed into each well of a 96-well plate and incubated at room temperature for 10-20 min. […] While incubating, purified antibodies were diluted to the desired dilution with blocking buffer. After a 10-20 minutes incubation, cells were centrifuged for 5 min at 2000 rmp in a refrigerated centrifuge. Blocking buffer was aspirated, and cells were resuspended in 100 μl/well diluted antibodies and incubated for 1 hour at 4° C. The cells were then washed 3 times with PBS plus 2% FBS. After the final wash, the cells were resuspended in 100 μl 1:500 diluted secondary antibody (Invitrogen, Cat #: A10631) and incubated for 1 hour at 4° C. in the dark. The cells were then washed 3 times with 200 μl PBS by centrifuging at 2000 rpm for 5 min. After the last wash, the cells were resuspended in 300 μl cold PBS and analyzed on a FACSVerse™ (BD Biosciences) flow cytometer.

recombinant human CD38 [5] = target: T2, recombinant human CD38; experiment: ELISA: plate coated with 1 ug/ml recombinant human CD38 ECD, serially diluted antibody, OD450
Description: as §1

B2: 1E2 (antibody, human IgG1, kappa, V domains shown)
VH: QSVEESGGRLVTPGTPLTLTCTVSGIDLNSYAMGWVRQAPGKGLKYIGIMTSGGNIYYANWAKGRFTISKTSTTVDLRITSPTTEDTATYFCAREREFYGGGTSGSRLDLWGQGTLVTVSS
VL: AYDMTQTPASVEAAVGGTVTIKCQASQSIYNFLNWYQQKPGQPPKLLIYYASTLAFGVPSRFKGSGSGTEYTLTISGVESADAATYYCQQGWNSGILDNSFGGGTEVVVKR
notes: Rabbit-human chimeric anti-CD38: rabbit VH and VL on human IgG1 and kappa constant regions
- EC50 (read off the curve) (cynomolgus CD38 ECD [1]): ~60 pM
- Kd (cynomolgus CD38 ECD [2]): 68100 pM
- koff (cynomolgus CD38 ECD [2]): 0.0124 s⁻¹
- kon (cynomolgus CD38 ECD [2]): 182000 M⁻¹ s⁻¹
- Kd (recombinant human CD38 [3]): 1620 pM
- koff (recombinant human CD38 [3]): 0.000388 s⁻¹
- kon (recombinant human CD38 [3]): 240000 M⁻¹ s⁻¹
- EC50 [4]: 497 pM
- Max Binding MFI [4]: 2130 MFI
- EC50 (read off the curve) (recombinant human CD38 [5]): ~60 pM

B3: 21G2 (antibody, human IgG1, kappa, V domains shown)
VH: QSVEESGGRLVTPGTPLTLTCTVSGFSLSNYGVSWVRQAPGKGLEWIGYILTSGGTYYANWAQGRFTISKTSTTVDLKITSPTTEDTATYFCGRPKDSDSSAFVSLWGPGTLVTVSS
VL: DVVMTQTPASVSEPVGGTVTINCQASESIYSNLAWYQQKPGQPPKLLIYKASTLASGVSSRFKGSGSGTEFTLTISDLESADAATYYCQANHMIVIYGNGFGGGTEVVVKR
notes: as for B2
- EC50 (read off the curve) (cynomolgus CD38 ECD [1]): ~60 pM
- Kd (cynomolgus CD38 ECD [2]): 1710 pM
- koff (cynomolgus CD38 ECD [2]): 0.000432 s⁻¹
- kon (cynomolgus CD38 ECD [2]): 253000 M⁻¹ s⁻¹
- Kd (recombinant human CD38 [3]): 190 pM
- koff (recombinant human CD38 [3]): 3.1e-05 s⁻¹
- kon (recombinant human CD38 [3]): 167000 M⁻¹ s⁻¹
- EC50 [4]: 1130 pM
- Max Binding MFI [4]: 2150 MFI
- EC50 (read off the curve) (recombinant human CD38 [5]): ~60 pM

B4: 17F7 (antibody, human IgG1, kappa, V domains shown)
VH: QSVEESGGRLVTPGTPLTLTCTASGFSLSSYYMSWVRQAPGKGLEWIGFISKTAITYYASWARGRFTISKTSTAVDLKITSPTTEDTATYFCARVDAYSAGDLWGPGTLVTVSS
VL: AQVLTQTPSSVSAAVGGTVTINCQASQSVYSDNRLSWFQQKSGQPPKLLIYSTSSLASGVPSRFSGSGSGTQFTLTISGVQSDDAASYYCQGEFICTSADCFVFGGGTEVVVKR
notes: as for B2
- EC50 (read off the curve) (cynomolgus CD38 ECD [1]): ~60 pM
- Kd (cynomolgus CD38 ECD [2]): 2320 pM
- koff (cynomolgus CD38 ECD [2]): 0.00382 s⁻¹
- kon (cynomolgus CD38 ECD [2]): 1.65e+06 M⁻¹ s⁻¹
- Kd (recombinant human CD38 [3]): 7560 pM
- koff (recombinant human CD38 [3]): 0.00378 s⁻¹
- kon (recombinant human CD38 [3]): 500000 M⁻¹ s⁻¹
- EC50 [4]: 432 pM
- Max Binding MFI [4]: 1530 MFI
- EC50 (read off the curve) (recombinant human CD38 [5]): ~60 pM

B6: 25F12 (antibody, human IgG1, kappa, V domains shown)
VH: RSLEESGGRLVTPGTPLTLTCTTSGFSLSSYDMSWVRQAPGKGLEWIGYITYGGNIYYATWAKGRFTTSKTSTTVDLKITSPTTEDTATYFCARTLYTGGRYYFSLWGPGTLVTVSS
VL: AQVLTQTPSSVSAVVGGTVTINCQSSQSIANSNEVAWYQQKLGQPPKLLIYDASTLASGVPSRFSGSGSGTQFTLIISGVQSDDAATYYCQGTVYDNVWYAAFGGGTEVVVKR
notes: as for B2
- EC50 (read off the curve) (cynomolgus CD38 ECD [1]): ~60 pM
- Kd (cynomolgus CD38 ECD [2]): 180 pM
- koff (cynomolgus CD38 ECD [2]): 0.000185 s⁻¹
- kon (cynomolgus CD38 ECD [2]): 1.04e+06 M⁻¹ s⁻¹
- Kd (recombinant human CD38 [3]): 10 pM
- koff (recombinant human CD38 [3]): 2.24e-05 s⁻¹
- kon (recombinant human CD38 [3]): 1.84e+06 M⁻¹ s⁻¹
- EC50 [4]: 263 pM
- Max Binding MFI [4]: 1030 MFI
- EC50 (read off the curve) (recombinant human CD38 [5]): ~60 pM

Now those with a lower Kd (cynomolgus CD38 ECD [2]), led by results:

- EC50 (read off the curve) (cynomolgus CD38 ECD [1]): ~60 pM
- Kd (cynomolgus CD38 ECD [2]): 150 pM
- koff (cynomolgus CD38 ECD [2]): 0.000187 s⁻¹
- kon (cynomolgus CD38 ECD [2]): 1.23e+06 M⁻¹ s⁻¹
- Kd (recombinant human CD38 [3]): 30 pM
- koff (recombinant human CD38 [3]): 3.48e-05 s⁻¹
- kon (recombinant human CD38 [3]): 1.15e+06 M⁻¹ s⁻¹
- EC50 [4]: 347 pM
- Max Binding MFI [4]: 1180 MFI
- EC50 (read off the curve) (recombinant human CD38 [5]): ~60 pM
B7: 25C3 (antibody, human IgG1, kappa, V domains shown)
VH: QEQLEESGGDLVKPGASLTLTCKASGFSFSSAYDMCWVRQAPGKGLEWVACLYTVSSDSIYYASWAKGRFTISRTSSTTVTLQMTSLTAADTATYFCARDGDYFALWGPGTLVTVSS
VL: DIVMTHTPASVEAAVGGTVTIKCQASQNIGGYLSWYQQKPGQRPKLLIYRASTLASGVPSRFKGSGSGTQFTLTISDLESADAATYYCQTYYYSGSSRYWAFGGGTEVVVKR
notes: as for B2

- EC50 (read off the curve) (cynomolgus CD38 ECD [1]): ~60 pM
- Kd (cynomolgus CD38 ECD [2]): 140 pM
- koff (cynomolgus CD38 ECD [2]): 0.000175 s⁻¹
- kon (cynomolgus CD38 ECD [2]): 1.23e+06 M⁻¹ s⁻¹
- Kd (recombinant human CD38 [3]): 70 pM
- koff (recombinant human CD38 [3]): 2.59e-05 s⁻¹
- kon (recombinant human CD38 [3]): 380000 M⁻¹ s⁻¹
- EC50 [4]: 503 pM
- Max Binding MFI [4]: 859 MFI
- EC50 (read off the curve) (recombinant human CD38 [5]): ~60 pM
B1: 25E4 (antibody, human IgG1, kappa, V domains shown)
VH: QSLEESGGRLVTPGTPLTLTCTVSGIDLSIYTMAWVRQAPGKGLEYIGIISGYGTTYYATWAKGRFIVSKTSTTVDLKITSPTTEDTATYFCVRTTVQSTDLWGPGTLVTVSS
VL: DIVMTQTPASVEAAVGGTVTINCQASQNIYSNLAWYQQKPGQRPKLLIYKASTLASGVSSRFKGSGSGTEFTLTISDLASADAATYYCQSYYGATSSSFGYGFGGGTEVVVKR
notes: as for B2

- EC50 (read off the curve) (cynomolgus CD38 ECD [1]): ~60 pM
- Kd (cynomolgus CD38 ECD [2]): 40 pM
- koff (cynomolgus CD38 ECD [2]): 9.46e-05 s⁻¹
- kon (cynomolgus CD38 ECD [2]): 2.43e+06 M⁻¹ s⁻¹
- Kd (recombinant human CD38 [3]): 0.029 pM
- koff (recombinant human CD38 [3]): 2.77e-08 s⁻¹
- kon (recombinant human CD38 [3]): 970000 M⁻¹ s⁻¹
- EC50 [4]: 325 pM
- Max Binding MFI [4]: 1330 MFI
- EC50 (read off the curve) (recombinant human CD38 [5]): ~60 pM
B5: 23B3 (antibody, human IgG1, kappa, V domains shown)
VH: QSVEESGGRLVTPGTPLTLTCTVSGFSLSNYDMTWVRQAPGRGLEWIGVISSGDNTNYARWAKGRFTISKTSSTTVDLKITSPTTEDTATYFCARILYNKGRYYFTFWGPGTLVTVSS
VL: B6 VL with V14A, N33D, V35L, L42P, S58P, I76T, N97S, V98G
notes: as for B2
